A short description of this series: label from the status in PepcDB records.
“MQGIKNLTHGPINRQLFNLAMPIMATSFIQMAYSLTDMAWVGRLGSEAVAAIGSVGILTWMSGSISLLNKVGSEVSVGQSIGAQNQEDARQFASHNITIALIISICWGGLLFMFASPIIRIYELEEHITANAIEYLRIISTALPFIFLSAAFTGIYNAAGRSKIPFYISGTGLIMNIILDPLFIFGFGLGTNGAAYATWLSQATVFAIFIYQLRFRKDALLGGFPFFSRLKKKYTRRILKLGLPVATLNTLFAFVNMFLCRTASEQGGHIGLMTFTTGGQIEAITWNTSQGFSTALSAFIAQNFAAGRIERVLKAWHTTLWMTGIFGTFCTLLFVFYGNEVFSIFVPEQAAYEAGGVFLRIDGYSQLFMMLEITMQGVFYGIGRTVPPAIVSIVCNYMRIPLAILFVRMGMGVEGIWWAVCVTTIAKGLILLGWFTMIRKKCLNLPSVSTR”: the protein production entry is given as “failed”.

“MEVKMPFVVFVKRSVRFPGKHSYMIGGKSLLEIIVSKLSNIGKVYVFTKDKDIICNGCSIEFDTTNGIITDSVLAAIDKFGTFFAVAGDMPLIKPELVSKMLSQYKGSPLFPRHMDGMLEPLFGIYTEDLYNALKEYLDKGGESLHAFLLTQPLQYYDIGSDDEVNFININYKSDIEKYRDLLVQLLEHHHHHH”: the protein production entry was “not failed”.

For the sequence “MSLEQASVTNDFSENKQGCIQHPWQGKKVGYIGDSITDPNCYGDNIKKYWDFLKEWLGITPFVYGISGRQWDDVPRQAEKLKKEHGGEVDAILVFMGTNDYNSSVPIGEWFTEQEEQVLSAHGEMKKMVTRKKRTPVMTQDTYRGRINIGITQLKKLFPDKQIVLLTPLHRSLANFGDKNVQPDESYQNGCGEYIDAYVQAIKEAGNIWGIPVIDFNAVTGMNPMVEEQLIYFYDAGYDRLHPDTKGQERMARTLMYQLLALPVAFEGHHHHHH”, the protein production entry is on record as “not failed”.

As for “MEITTLQIVLIFIVACVSGMGSILDEFQFHRPLVACTLIGAVLGDLKTGIIIGGTLEMIALGWMNIGAAVAPDAALASIISTILVIAGGQGIGAGIALAIPLAAAGQVLTIIVRTITVAFQHAADSAAERGNLTAISWIHVSALLLQAMRIAIPAVIVAVSVGTDTVHALLNSIPDVVTNGLNIAGGMIVVVGYAMVINMMRAGYLMPFFYLGFVTAAFTEFNLVALGVIGIVMAVLYIQLSPKYNKVQGQSVTSGNNGLDNELD”, the protein production entry is “failed”.

Consider “MASASFSAVSSLSYQFRSKEAIFSSKASCFSSTALSGRRVFGSIKAAQVTSHENPRRRTQNVEGDIFVDNTCIDCDTCRWMVPDLFTRVDNMSAVTKQPTCKEERLNALQALLSCPTGSIRTQTPPADIGEAQETFPLVVDKDTLPGVFHCGFHSKKSYGATSYLILHREGNILVDSPRYVEKLAGKIEMKGGVRYMFLTHRDDVADHKKWADRFKSTRILHSDDVEPSTSDVELKLEGSGPWSIYEDVELIHTPGHSEGSVCMFHKSLKALFTGDHVIMTESGLSILEQYNHGSVPLQLENVEKLINLDFNWLIPGHGRRVHFKDGDEKAKNLEALVQKHREKQLVSFSKSGKA”, for which the protein production result was “failed”.

Turning to “MALNNFLTFQLLLLLLRVSSESPWIVAGDVSRIPINFLELAKSPEVFDSMVRIRRKIHENPELGYEEFETSKFIRSELDLIGVKYRFPVAITGIIGYIGTGEPPFVALRADMDALPIQEAVEWEHKSKNPGKMHACGHDGHVAMLLGAAKILQQHRQHLQGTVVLIFQPAEEGLSGAKMMREEGALKNVEAIFGIHLSPRTPFGKAASLAGSFMAGAGAFEAVITGKGGHAAIPQHTIDPVVAASSIVLSLQHLVSRETDPSDSKVVTVTKVNGGNAFNVIPDSITIGGTLRAFTGFTQLQERIKEIITKQAAVHRCNASVNLAPNGNQPMPPTVNNMDLYKKFKKVVRDLLGQEAFVEAVPEMGSEDFSYFAETIPGHFSLLGMQDETQGYASSHSPHYRINEDVLPYGAAIHATMAVQYLKDKASKGSVSGFHDEL”, the protein production result was “not failed”.

Turning to “MSEGMMLTTLDRLTIYAVLCFISLCALGLGETTQAQLMPVLGTAASIFGIWLEMRSEQDTTQQPHR”, the protein production result is reported as “failed”.

With “MALDRIEAMRAFCRIVELGSFTRAADSLGVASTTLSGQIQVLERLLDIRLLHRSTRKVHPTNEGLAYYQRARKVIEDIDDLEASVSISRAVVKGRVAVEMPTPVGIHLVIPALHGFTERYPHIHLDIGCSERVVGLMQEGIDCAIRGGDIADQDLIARRVGQMRFCLCAAPAYLDAHPAITHPAQLARHRHLGFRFPGTGKRFVATLRKQRDSHPLDHPPHVYFNNGTAVTAGAAAGLGIAALPRAEVRHLLEAGALREILPDWTLTSMPMSVVYPQTHQLSARVQVFVQWVAELFEGDGLWKDA”, the protein production result is reported as “failed”.

As to “MWDLNIKESTMTRNGKAKRPLPLAASVAMYAIAIILAAATAIGNVYANKYSDLISVYFNQPTSKVVSASNETTEHFTSDYASDDEREQALADMGTTILREGVTLLKNENGTLPLEATSKISVFGQDSVDSVYGGGGAGSIDTSKAQSLMDAFEQAGFDVNPTLTEFYTTGAGKDYRKTSTDAYGKGTFAVNEVPASAYTDDVKKSFASYNDAAIVVIGRSGSESQDLPTDKLASGYTYLQLDDDERAMLKMASDNFDKVVVLLNTQNPMELADLEDDSIDAVMWIGSLGQTGAGGVAEALNGTVNPSGHLPDTYAYDLKSAPSSANFGSYAIVNGTDRFTSSYMAYAEGIYVGYRYYETRYEDVVLGNEARSNYDYTKQVAYPFGYGLSYTDFTWSDYSMKKADGGFDISVKVTNTGKTAGKDVVQLYMQSPYTDYDKANGIEKASVELVGYAKTDTLKAGASETVTVHVDQESMKTYDSTGEGTYIMDAGDYYLAVGTDAHNALNNILAAKGKTTADGMTENGNAALAAKHTVHSQDNTTYAKSAATDEKISNQFDDVDLTTYDNSFTYLSRSDWTGSWPATYADGKWTASQKFLDALNIDTAQSEPEQKPTTDTDNPSYGKLNASMLMDADYADESWSALIGQMSVKELDQLVRIGGYATKSVSSTQLPATTDKDGPAGISSTLVGGESGMGYPSEIVIAATWNSDLAESFGKAIGEDSLALKVAVWYGPACNIHRNPYGGRAFEYFSEDSYLSGAMCAKVVAGAGSKGVVSTVKHFALNDQETNRMGGAIFANEQTIRQLYLRPFEMSVRDGGATAMMASMNRIGSRWTGGHKGLMTNTLRGEWGFNGFVVTDQASYSVFAYEDLREGLEAGTDLWLNTDAGLWKLPDDDMTDGVIANMQRAAHNISYAISRSNAMNGLSANSKIVKVTPLWRWGVYALDGVVTVGAVALIAIATLQILRRRKRDATVAAETGEPAANDGE”, the protein production entry is “failed”.

As for “MAIRLTHLRKPLAYSRSFDVCIPFFRSISSFEAVEKAIKCAVETKEYLRIPELVVSLKEPYQNSTLFSFLSAFQRHHRIRVIDEILQSFVPVRPRSLPKIVYSSLLTYCLQSSDPLPLSFAILQRTLRSGCLPNPQTHLLLSDAWLERRRGSQSVADIINEMKLIGYSPDTGTCNYLVSSLCAVDKLDEAIKVVEEMSAAGCIPDVESYGAVINSLCLARKTTDVVKIVKEMVSKAGISPRKGMLTKVAAALRANREIWKAIEMIEFVESRDYPVEFESYEVVVEGCLEVREYILAGKVVMRMTDRGFIPYIKVRQKVVERLINIGEWKLACTVRQRVSELRS”, the protein production result is reported as “failed”.

On to “LVVSIRVQGDKRLSSLRRCCALTRYDAHKMSHDAFTVIKNCNTSGIQTEWSPPLTMLFLCATKFSASAP”, for which the protein production result is recorded as “failed”.

For “MLKQPIQAQQLIELLKVHYGIDIHTAQFIQGGADTNAFAYQADSESKSYFIKLKYGYHDEINLSIIRLLHDSGIKEIIFPIHTLEAKLFQQLKHFKIIAYPFIHAPNGFTQNLTGKQWKQLGKVLRQIHETSVPISIQQQLRKEIYSPKWREIVRSFYNQIEFDNSDDKLTAAFKSFFNQNSAAIHRLVDTSEKLSKKIQPDLDKYVLCHSDIHAGNVLVGNEESIYIIDWDEPMLAPKERDLMFIGGGVGNVWNKPHEIQYFYEGYGEINVDKTILSYYRHERIVEDIAVYGQDLLSRNQNNQSRLESFKYFKEMFDPNNVVEIAFATEQ”, the protein production result is “failed”.

For the sequence “MDLETLRARREAVLSLCARHGAVRVRVFGSVARGEAREDSDLDLLVAFEEGRTLLDHARLKLALEGLLGVRVDIVSERGLAPRLREQVLREAIPL”, the protein production entry is recorded as “not failed”.

For the sequence “MRPGSVKRLYGVNTVQYAPCFMRDHRRDGIPHGNLPLELDAFVGRGAQLAELARTLDSARLVTLTGSGGVGKSRLAARAAARRAPRGGVWRVQLAPVRDEEFVDYAVVEALGLTDHTTRLPRETLLAHLAERELLLLLDGVEHLVDACAALVTELLGRAPGLTVLAVGRRPLGVAGERLVPLAPLGTEEAVELLTVRAGQRSVARDHDADPDADQREMRELCRRLDGIPLAIELAAGRLDALSPGQMLRRLDDRFRLLTGGDRTALPRHRTLRTAIGWSHELCTPPERLLWARLSVFAGPFDLEAAEYVCSGDGMPADDVLDVLCALLSQSVLTREESPAGVRYRMLDTVRAYGADWLAATGDADRLRRRHRDWYVGLATWCELEWFSPRQGEVAARVDAELPNLRSALEHCLDEPDGAHLGQYLAGALWFHWVGCGRLSEGRHWLEQAVRLDAEPTAGEQSRLKALWVLAYVAILQGDTVPALAALQECREEAERSANPTAAAYAEHRTGCLALVTDDLPRAETLLRSALHRYREIGELNSNVLMGQVELAMARAFQGDLPDAVRLCEDVRQVCEDHGERWARGYALYVLAYAAWSDGEPVRARELLADCLGSAHRFRDQLGSVLAVELLALVTVAEGDAAEAAVLQGAAGRMWPSVGLPLFGSAHYNAPHELCEAAAREQLGDERYEECVRHGARLGRREAVARALRRPGARASLPAPRPTAVRRAPAGARTAKPAASPTRKGGETAG”, the protein production result is listed as “failed”.

For the sequence “MTHLQGVRHAHRQVTAGVRGLTRHLCMVLVGCSLGLVAAGCTREPSSPTARASHSDAAPATPTASPAPASTPPPAADPSVLRVCADPGNMPLSNKAGEGFQNKIAQVVAEAMGRRLEYEWRTYYQRGLARSTINAGRCDVLMDLNSDFEMGLTTRPLYRSPYVLVTRKGLDLVPTSLDDPALKKLRLGVFQSSPARQALYEHGVSGEVKYLFYDSATAPEEHPGKLVERVAAGELDAAESWGPVAGYYAARNNLGVVPLNTIDDAVLEYSMAWAVARKNAALRDALNTALQQSAAKIDEILRSYHVPLVRCADCIVAGDLASHGPYVTPASAPKSTNAATSSQELAQLQLRIADGADPNQELAHALDAGDALRAAWLLRHGADANQPNLLGEPPLHQAIRNQEPDLVGLLIDAGARLDARDGNGWTALMKAAWGNDADSVQRLLARRAPLDTVSSDGWNALELAVSYADVGVVEALLKAGAKARGANRTGFTPVMFAVPREDPAILDALLKHGADVRGANQAGVTALMLAAASGREATAKRLLAAGADPAARNRDGKTAATLAQERGDAALAALLAPGKRSTTQ”, the protein production entry was “failed”.

For the sequence “MSVRDLIPWSRGGGPAPSIYRGDDMDPFLSLHRNVNRLFDEVFRGFDTPSVLGRMAPLNGTWPGVEFSETDEEIRLTAEIPGLDENDVEVMLDDGVLTLRGEKKAETEDKDRQFSERYYGRFERRFGLGREVEDDKVAATFKNGVLTVTLPKTKRAQANAKRIAINGNK”, the protein production entry is “failed”.

For the sequence “MPDFVNLWIYLSSTPLFGLTATLTVYLSAHAMYLRLGQVPLANPVLWSMVVLAAGLLAFGVPYPTYFAGAQFIHFLLGPAVVALAWPLWMRRAELRRRWARLLWAALFGGAVACASAVLLGWAVGLPRDIILSLAPKSVTAPVAMGLSETLGGIPALSAVFAALTGLVGALTGKYLFDLLGAVRGRQDWADRGFALGTVSHGIGAARAIQVNADAGAYAGLALGLQVILASLLIPVAFRLAAGLGGS”, the protein production entry was “failed”.

“MSSRAKRLTHLASLPSMSRALLKKILHFDETLTVIFKQSHVQLSETYGLSTKKARHLYEHLRRVSTDFWSEYYEKKQIVPVTIFDKGYPNLLKEIYDPPFVLFCRGRMNTLYSEKRLAIVGTRKTSTTGLKSLELLIPPLLQDGWVIVSGFAAGVDIHAHQLTVKNGGQTIAVLAHGHDNLYPAAHRPFAEHEMVSQLMISEYPPYVKPRPWQFPERNRIISGLCAGTVVIEAKEKSGSLITADQALEQGRDVFAVPGAITNQKAAGTNQLIQQGAKLIQRADDIIEELCGFQQSCDSDKFF”: the protein production result is “failed”.

The record behind these values is a protein production outcome set (Wang et al. 2014).
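Note: failed if final PepcDB status was selected cloned or expressed and not failed if soluble or beyond.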
